From paper PMC7264293, “Multi-site-mediated entwining of the linear WIR-motif around WIPI β-propellers for autophagy” (Nature Communications, 2020)
Changes are numbered by the printed parent chain. Numbers in names are those of the source.

Legend:
Assay in all cases: ITC; WIPI3 proteins in the sample cell, GB1-tagged ATG2A fragments in the syringe; 25 °C; 50 mM Tris-HCl pH 8.0, 100 mM NaCl, 1 mM EDTA, 1 mM DTT; model of one binding site
Settings in all cases: both partners purified
[1] = target: T1, WIPI3-Δloop (human, UniProt Q5MNZ6 1-344, Blade 2 B-C loop (75-80) deleted | Blade 6 C-D loop (264-281) deleted)
T1 construct: human WIPI3 with deletions of the Blade 2 B-C loop (75-80) and the Blade 6 C-D loop (264-281); also called loop-deletion mutant of WIPI3; source: E. coli BL21(DE3), purified (Ni2+-Sepharose, size-exclusion chromatography)
T1 sequence (Q5MNZ6 other isoform, or with tags, fused parts or gaps with the stated changes): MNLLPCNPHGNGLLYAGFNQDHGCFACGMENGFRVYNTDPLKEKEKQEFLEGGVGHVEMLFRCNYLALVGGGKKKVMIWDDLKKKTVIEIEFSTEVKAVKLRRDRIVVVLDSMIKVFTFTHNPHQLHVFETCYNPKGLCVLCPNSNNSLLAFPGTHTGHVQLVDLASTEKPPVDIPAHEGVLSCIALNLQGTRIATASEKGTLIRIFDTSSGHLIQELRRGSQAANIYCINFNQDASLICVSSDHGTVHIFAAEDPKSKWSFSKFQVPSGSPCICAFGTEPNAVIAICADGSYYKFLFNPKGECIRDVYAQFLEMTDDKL

[2] = target: T2, WIPI3 (full-length, wild-type) (human, UniProt Q5MNZ6 1-344)
T2 construct: human WIPI3, full length; also called wild-type WIPI3; full-length WIPI3; source: E. coli BL21(DE3), purified (Ni2+-Sepharose, size-exclusion chromatography)
T2 sequence (Q5MNZ6 whole entry): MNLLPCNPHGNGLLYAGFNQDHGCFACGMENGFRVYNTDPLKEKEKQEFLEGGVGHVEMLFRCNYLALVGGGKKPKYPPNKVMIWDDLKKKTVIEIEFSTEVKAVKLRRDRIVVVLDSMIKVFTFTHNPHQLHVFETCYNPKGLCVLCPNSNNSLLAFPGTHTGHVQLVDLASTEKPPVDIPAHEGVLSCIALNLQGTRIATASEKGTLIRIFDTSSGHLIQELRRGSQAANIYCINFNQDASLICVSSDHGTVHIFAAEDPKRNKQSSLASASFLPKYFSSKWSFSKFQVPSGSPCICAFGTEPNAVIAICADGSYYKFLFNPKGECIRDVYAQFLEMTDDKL

[3] = target: Hsv2 (yeast, UniProt P50079 1-448)
Chain of Hsv2 (P50079 whole entry): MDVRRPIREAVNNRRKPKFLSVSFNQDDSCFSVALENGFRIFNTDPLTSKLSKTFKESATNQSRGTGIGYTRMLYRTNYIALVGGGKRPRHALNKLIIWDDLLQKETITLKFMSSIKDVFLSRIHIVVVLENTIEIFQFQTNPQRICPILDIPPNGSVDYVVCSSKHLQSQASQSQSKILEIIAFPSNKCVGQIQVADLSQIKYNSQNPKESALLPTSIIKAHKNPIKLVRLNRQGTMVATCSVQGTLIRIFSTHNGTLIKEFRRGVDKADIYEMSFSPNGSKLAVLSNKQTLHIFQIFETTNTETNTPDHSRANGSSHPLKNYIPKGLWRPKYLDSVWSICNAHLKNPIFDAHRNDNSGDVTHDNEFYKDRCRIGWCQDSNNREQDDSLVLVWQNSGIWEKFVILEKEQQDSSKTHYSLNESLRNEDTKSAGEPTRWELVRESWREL

B1: GB1-tagged ATG2A long fragment (1358-1404) (domain or fragment, human, UniProt Q2TAZ0 1358-1404, looked up)
chain: DSDEFCILDAPGLGIPPRDGEPVVTQLHPGPIVVRDGYFSRPIGSTD
notes: human ATG2A residues 1358-1404; source: E. coli BL21(DE3), purified (Ni2+-Sepharose, size-exclusion chromatography), tag not cleaved
Kd [1]: 6.3 ± 0.2 µM
Kd [2]: 8.6 ± 0.1 µM

B2: GB1-tagged ATG2A short fragment (1374-1404), the WIR-peptide (peptide, UniProt Q2TAZ0 1374-1404, looked up)
chain: PRDGEPVVTQLHPGPIVVRDGYFSRPIGSTD
notes: human ATG2A residues 1374-1404; In the crystal (PDB 6KLR) the same stretch stood fused to the N-terminus of WIPI3-Δloop without the GB1 tag; source: E. coli BL21(DE3), purified (Ni2+-Sepharose, size-exclusion chromatography), tag not cleaved
Kd [3]: 21.5 ± 2 µM
Kd [1]: 6.4 ± 0.7 µM
stoichiometry N [1]: 1
Kd [2]: 8.7 ± 0.1 µM

B3: GB1-tagged WIR-peptide T1382A (peptide, UniProt Q2TAZ0 1374-1404, looked up)
chain: B2 chain with T9A
notes: human ATG2A residues 1374-1404 with T1382A; source: E. coli BL21(DE3), purified (Ni2+-Sepharose, size-exclusion chromatography), tag not cleaved
binding result [1]: binds

B4: GB1-tagged WIR-peptide T1382Q (peptide, UniProt Q2TAZ0 1374-1404, looked up)
chain: B2 chain with T9Q
notes: human ATG2A residues 1374-1404 with T1382Q; source: E. coli BL21(DE3), purified (Ni2+-Sepharose, size-exclusion chromatography), tag not cleaved
binding result [1]: binds

B5: GB1-tagged WIR-peptide V1380A (peptide, UniProt Q2TAZ0 1374-1404, looked up)
chain: B2 chain with V7A
notes: human ATG2A residues 1374-1404 with V1380A; source: E. coli BL21(DE3), purified (Ni2+-Sepharose, size-exclusion chromatography), tag not cleaved
binding result [1]: binds

B6: GB1-tagged WIR-peptide V1380Q (peptide, UniProt Q2TAZ0 1374-1404, looked up)
chain: B2 chain with V7Q
notes: human ATG2A residues 1374-1404 with V1380Q; source: E. coli BL21(DE3), purified (Ni2+-Sepharose, size-exclusion chromatography), tag not cleaved
binding result [1]: binds
